The values below come from patent US20130064834A1 (published 2013).

The target in assay [1] is T1, Human PCSK9-myc-myc-his (human, UniProt Q8NBP7 31-692).
T1 construct: also called hPCSK9-mmh; hPCSK9
Nature of the assay: competition ELISA vs EGF-A-hFc, pH 7.2.
Method: (§1) Briefly, hLDLR-ecto, hLDLR EGF-A-hFc or hLDLR EGF-AB-hFc, each at 2 μg/ml, was coated on a 96-well plate in PBS buffer overnight at 4° C., and nonspecific binding sites blocked with BSA. […] The equilibrated sample solutions were transferred to receptor or receptor fragment coated plates.

The target of assay [2] is T1, Human PCSK9-myc-myc-his. As to the kind of experiment: SPR, antigen captured at low density, pH 7.4, 25C.
Assay [3] has as its target T2, tagged rhesus monkey (Macaca mulata) PCSK9 (rhesus monkey (Macaca mulata), UniProt A8T666 31-692).
T2 construct: also called mmPCSK9-mmh; mmPCSK9
As to the kind of experiment: competition ELISA vs EGF-AB-hFc, pH 7.2.
Method: as §1

Assay [4] deals with T3, mouse PCSK9, myc-myc-his tagged (mouse, UniProt Q80W65 35-694).
T3 construct: also called mPCSK9-mmh; mPCSK9
Nature of the assay: competition ELISA vs EGF-AB-hFc, pH 7.2.
Method: as §1

The target of assay [5] is T4, rat (Rattus norvegicus) PCSK9, myc-myc-his tagged (rat (Rattus norvegicus), UniProt P59996 31-691).
T4 construct: also called rPCSK9-mmh; rPCSK9
T4 sequence (P59996 31-691 limits assumed): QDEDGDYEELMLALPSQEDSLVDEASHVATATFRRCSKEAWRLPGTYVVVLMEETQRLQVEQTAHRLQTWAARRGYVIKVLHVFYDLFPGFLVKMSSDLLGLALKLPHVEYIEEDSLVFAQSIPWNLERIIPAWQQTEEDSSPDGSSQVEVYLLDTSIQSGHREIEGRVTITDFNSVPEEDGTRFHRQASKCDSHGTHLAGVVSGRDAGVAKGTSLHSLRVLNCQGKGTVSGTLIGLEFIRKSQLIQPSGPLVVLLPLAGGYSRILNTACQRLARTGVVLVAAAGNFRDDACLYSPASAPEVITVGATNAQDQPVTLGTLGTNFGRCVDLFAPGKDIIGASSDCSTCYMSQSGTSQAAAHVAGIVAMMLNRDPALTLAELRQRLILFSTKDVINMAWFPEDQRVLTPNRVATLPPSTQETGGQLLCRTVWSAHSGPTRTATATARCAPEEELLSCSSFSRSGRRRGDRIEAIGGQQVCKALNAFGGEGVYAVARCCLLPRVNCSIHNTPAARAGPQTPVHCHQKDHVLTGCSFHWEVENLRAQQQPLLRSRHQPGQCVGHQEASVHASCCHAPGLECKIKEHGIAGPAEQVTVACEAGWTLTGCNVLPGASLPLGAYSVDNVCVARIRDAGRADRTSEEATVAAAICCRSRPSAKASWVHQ
Nature of the assay: ELISA, mAb coated, 1.7 nM antigen.

For assay [6], the target named is T2, tagged rhesus monkey (Macaca mulata) …. Nature of the assay: ELISA, mAb coated, 1.7 nM antigen.
In another assay the target is T5, hPCSK9(D374Y)-mmh (human, UniProt Q8NBP7 31-692).
T5 construct: also called hPCSK(D374Y)-mmh
As to the kind of experiment: ELISA, mAb coated, 1.7 nM antigen.

Assay [7] addresses Chimeric protein #2 (hPro-mCat-mC-term-mmh) (human; mouse, UniProt Q80W65 19-694). Nature of the assay: ELISA, mAb coated, 1.7 nM antigen.
The target in assay [8] is T3, mouse PCSK9, myc-myc-his tagged. Nature of the assay: ELISA, mAb coated, 1.7 nM antigen.
The target of assay [9] is T6, Chimeric protein #1 (mPro-hCat-mC-term-mmh) (mouse; human, UniProt Q80W65 35-694).
T6 chain: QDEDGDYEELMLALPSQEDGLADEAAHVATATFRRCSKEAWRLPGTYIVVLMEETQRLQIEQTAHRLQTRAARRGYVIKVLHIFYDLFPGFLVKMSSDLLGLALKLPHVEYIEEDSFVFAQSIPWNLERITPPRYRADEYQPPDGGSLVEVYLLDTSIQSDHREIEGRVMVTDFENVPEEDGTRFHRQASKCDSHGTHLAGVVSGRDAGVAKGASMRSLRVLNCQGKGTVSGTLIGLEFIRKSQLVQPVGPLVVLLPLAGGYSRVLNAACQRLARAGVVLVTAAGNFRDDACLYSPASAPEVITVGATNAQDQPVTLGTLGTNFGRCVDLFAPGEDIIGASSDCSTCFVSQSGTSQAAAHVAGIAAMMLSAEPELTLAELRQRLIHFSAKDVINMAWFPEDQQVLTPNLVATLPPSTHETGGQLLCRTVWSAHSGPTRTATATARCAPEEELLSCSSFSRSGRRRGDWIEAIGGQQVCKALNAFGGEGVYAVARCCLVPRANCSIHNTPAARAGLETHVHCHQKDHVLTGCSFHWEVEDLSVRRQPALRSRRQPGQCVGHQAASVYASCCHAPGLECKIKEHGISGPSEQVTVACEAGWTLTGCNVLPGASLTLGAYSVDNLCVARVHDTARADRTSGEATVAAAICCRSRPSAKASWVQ
As to the kind of experiment: ELISA, mAb coated, 1.7 nM antigen.

The target in assay [10] is T7, cynomolgus monkey (Macaca fascicularis) PCSK9, myc-myc-his tagged (cynomolgus monkey (Macaca fascicularis), UniProt A8T662 31-692 (Macaca nemestrina entry), limits assumed).
T7 construct: also called mfPCSK9-mmh; mfPCSK9
T7 sequence (A8T662 31-692 limits assumed): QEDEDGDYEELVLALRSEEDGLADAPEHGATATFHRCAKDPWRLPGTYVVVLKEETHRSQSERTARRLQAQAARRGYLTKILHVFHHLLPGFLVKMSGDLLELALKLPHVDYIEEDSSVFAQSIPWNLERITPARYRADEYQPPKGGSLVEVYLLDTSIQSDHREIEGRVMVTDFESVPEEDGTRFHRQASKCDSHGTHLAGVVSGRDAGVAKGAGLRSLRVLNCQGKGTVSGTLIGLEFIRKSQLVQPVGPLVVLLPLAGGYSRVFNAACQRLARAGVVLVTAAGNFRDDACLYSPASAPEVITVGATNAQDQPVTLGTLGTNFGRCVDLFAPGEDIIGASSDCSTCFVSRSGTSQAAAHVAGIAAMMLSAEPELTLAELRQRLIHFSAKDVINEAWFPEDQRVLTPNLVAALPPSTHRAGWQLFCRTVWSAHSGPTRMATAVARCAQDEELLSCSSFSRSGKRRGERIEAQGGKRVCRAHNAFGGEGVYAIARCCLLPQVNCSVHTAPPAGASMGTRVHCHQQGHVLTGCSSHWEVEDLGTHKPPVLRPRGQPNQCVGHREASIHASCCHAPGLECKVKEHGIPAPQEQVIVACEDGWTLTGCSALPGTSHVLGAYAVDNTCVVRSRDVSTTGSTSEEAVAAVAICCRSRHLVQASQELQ
As to the kind of experiment: ELISA, mAb coated, 1.7 nM antigen.

For assay [11], the target named is T4, rat (Rattus norvegicus) PCSK9, …. Nature of the assay: competition ELISA vs EGF-A, pH 5.5.
Method: as §1
The target of assay [12] is T1, Human PCSK9-myc-myc-his. Nature of the assay: competition ELISA vs EGF-A, pH 5.5.
Method: as §1
For assay [13], the target named is T2, tagged rhesus monkey (Macaca mulata) …. Nature of the assay: competition ELISA vs EGF-A, pH 5.5.
Method: as §1
In assay [14] the target is T8, his-tagged Syrian golden hamster (Mesocricetus auratus) PCSK9 (Syrian golden hamster (Mesocricetus …)).
T8 construct: also called maPCSK9-h; maPCSK9
T8 chain: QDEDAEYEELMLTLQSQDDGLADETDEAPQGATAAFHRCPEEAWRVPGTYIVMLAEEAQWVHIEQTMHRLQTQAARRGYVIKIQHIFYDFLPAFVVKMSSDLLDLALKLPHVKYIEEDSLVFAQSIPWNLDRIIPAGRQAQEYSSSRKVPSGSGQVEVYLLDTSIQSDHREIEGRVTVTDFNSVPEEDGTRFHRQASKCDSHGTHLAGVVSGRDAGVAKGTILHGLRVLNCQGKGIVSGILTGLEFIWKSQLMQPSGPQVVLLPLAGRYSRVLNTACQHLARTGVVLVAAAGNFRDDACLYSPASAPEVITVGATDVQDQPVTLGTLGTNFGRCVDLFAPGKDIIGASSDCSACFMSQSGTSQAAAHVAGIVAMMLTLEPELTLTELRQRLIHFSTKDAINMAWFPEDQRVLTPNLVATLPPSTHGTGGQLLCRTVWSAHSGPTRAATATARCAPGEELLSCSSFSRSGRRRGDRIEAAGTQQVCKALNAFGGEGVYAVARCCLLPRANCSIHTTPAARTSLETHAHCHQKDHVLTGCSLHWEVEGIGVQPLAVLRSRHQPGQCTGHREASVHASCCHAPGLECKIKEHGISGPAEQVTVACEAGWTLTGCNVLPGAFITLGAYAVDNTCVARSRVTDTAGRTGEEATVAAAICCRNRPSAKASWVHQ
Nature of the assay: competition ELISA vs EGF-A, pH 5.5.
Method: as §1

Assay [15] has as its target T3, mouse PCSK9, myc-myc-his tagged. Nature of the assay: competition ELISA vs EGF-A, pH 5.5.
Method: as §1
The target in assay [16] is T1, Human PCSK9-myc-myc-his. Nature of the assay: SPR, antigen captured at low density, pH 5.5, 25C.

T2 sequence (A8T666 31-692 limits assumed): as the sequence (A8T662 31-692 limits assumed) above, with A607P, E639K counted along it

B1: H1M300N (antibody, V domains shown)
VH: EMQLVESGGGLVQPGGSLRLSCAASGFTFSSHWMKWVRQAPGKGLEWVANINQDGSEKYYVDSVKGRFTISRDNAKNSLFLQMNSLRAEDTAVYYCARDIVLMVYDMDYYYYGMDVWGQGTTVTVSS
VL: not shown
notes: Fully human version made in CHO cells
Consider B1, for which the 50% inhibitory concentration (IC50) with Human PCSK9-myc-myc-his [1] is 0.146 nM; in assay [3], 0.29 nM; in [4] it was > 33 nM; in assay [11] it was > 100 nM; with Human PCSK9-myc-myc-his [12], 0.223 nM; in assay [13] it was 3.7 nM. The IC50 in [14] and in assay [15] was > 100 nM in each case. Moreover, the Kd in the assay with Human PCSK9-myc-myc-his [2] worked out at 0.31 nM; with Human PCSK9-myc-myc-his [16], 1.38 nM. Also, the results for the T1/2 with Human PCSK9-myc-myc-his [2] and with Human PCSK9-myc-myc-his [16] were 119 min and 13 min, respectively. Further, the OD in assay [5] was < 0.7 od; in assay [6] it was > 1.5 od; with hPCSK9(D374Y)-mmh it was > 1.5 od; in [7] it was > 1.5 od; in assay [8], < 0.7 od; in [9] it was > 1.5 od. The OD in [10] is > 1.5 od.

B2: H1H316P (antibody, V domains shown)
VH: EVQLVESGGGLVQPGGSLRLSCAASGFTFNNYAMNWVRQAPGKGLDWVSTISGSGGTTNYADSVKGRFIISRDSSKHTLYLQMNSLRAEDTAVYYCAKDSNWGNFDLWGRGTLVTVSS
VL: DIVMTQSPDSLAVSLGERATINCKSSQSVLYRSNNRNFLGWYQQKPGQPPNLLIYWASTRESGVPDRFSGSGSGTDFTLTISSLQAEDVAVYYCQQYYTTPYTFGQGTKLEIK
notes: Fully human mAb made in CHO cells; also called mAb316P
In the case of B2, the IC50 with Human PCSK9-myc-myc-his [1] is < 0.125 nM; in [3], < 0.25 nM; in assay [4], < 0.25 nM; in [11], 42.9 nM; with Human PCSK9-myc-myc-his [12] it was < 0.125 nM; in [13], < 0.25 nM. Also, the IC50 was 1.3 nM in assay [14] and 0.991 nM in [15]. Also, the Kd with Human PCSK9-myc-myc-his [2] came to 0.339 nM; with Human PCSK9-myc-myc-his [16] it was 0.188 nM. For the same molecule, the results for the T1/2 in the assay with Human PCSK9-myc-myc-his [2] and with Human PCSK9-myc-myc-his [16] were 45 min and 58 min, respectively. Besides, the OD (in assay [5]; in assay [6]; with hPCSK9(D374Y)-mmh; in assay [7]; in assay [8]; in assay [9]) was > 1.5 od throughout. In addition, the OD in assay [10] was > 1.5 od.
